These results are taken from paper PMC6889141, “In vivo methylation of OLA1 revealed by activity-based target profiling of NTMT1† †Electronic supplementary information (ESI) available. See DOI: 10.1039/c9sc02550b” (Chemical Science, 2019).

The target of this experiment is T1, N-Terminal methyltransferase 1 (NTMT1), wild type (UniProt Q9BV86 1-223).
T1 construct: N-terminal methyltransferase 1 (NTMT1), wild type; they probably stand in the ESI; also called wt NTMT1
T1 sequence (looked up): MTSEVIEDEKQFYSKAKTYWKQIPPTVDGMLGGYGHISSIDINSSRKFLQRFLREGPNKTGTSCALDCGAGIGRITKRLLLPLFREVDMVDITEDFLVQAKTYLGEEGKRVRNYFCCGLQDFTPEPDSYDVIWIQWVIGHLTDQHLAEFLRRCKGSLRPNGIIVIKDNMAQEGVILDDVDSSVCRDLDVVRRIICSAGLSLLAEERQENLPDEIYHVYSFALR
Kind of experiment: ITC; affinity of RCC1 peptide with wt NTMT1; conditions, and which of the two was titrated, not told in the text shown. The settings on record: both partners purified. On the technique in general: In ITC the heat of successive injections is recorded.

B1: RCC1p, peptide of the first 10 N-terminal residues of RCC1 after initial methionine removal (peptide, UniProt P18754 2-11, looked up)
peptide: SPKRIAKRRS
notes: RCC1, the first 10 N-terminal residues after removal of the initial methionine (residues 2-11 counted with the methionine as 1); also called RCC1 peptide; source: synthetic peptide
In turn, B1 came in with a Kd of 1220 ± 20 nM.

Broadly, the Kd is the free concentration of one partner at which half of the binding sites on the other are occupied at equilibrium, for simple one-to-one binding. High values mean lower affinity, low ones higher affinity.
